Measured values from US20170248602A1 (ALLERGAN, published 2017).
Where a chain is given by its changes, count along the chain named.

B1: α-SNAP-25 mouse monoclonal antibody 2E2A6 (antibody, V domains shown)
VH: QVQLQQSDAELVKPGASVKISCRASGYTFTDHSIHWVKQQPGQGLEWIGYIFPGNGNIEYNDKFKGKATLTADKSSGTAYMQLNSLTSEDSAVYFCKRMGYWGQGTSVTVSS
VL: DVLMTQTPLTLSVTIGQPASISCKSSQSLLYTNGKTYLTWLFQRPGQSPKRLIYLVSELDSGVPDRFSGSGSGTDFTLEITRVEAEDLGVYYCLQSAHFPFTFGSGTKLEIKR
B2: α-SNAP-25 mouse monoclonal antibody 3C1A5 (antibody, V domains shown)
VH: QVKLQESGAELVKPGASVKISCKASGYTFTDHSIHWVKQKPGQGLEWIGYLFPGNGNFEYNEKFKGKATLTADKSSSTVYMYLNSLTSEDSAVYFCKRMGYWGQGTTVTVSS
VL: B1 VL with L3V, Y31N, F42I, K50Q, E58K, E79K, T81S, A97S
B3: α-SNAP-25 mouse monoclonal antibody 1D3B8 (antibody, V domains shown)
VH: QVKLQESGAELVKPGASVKISCKASGYIFTDHALHWVRQKPEQGLEWIGYIFPGNGNIEYNEKFKGKATLTADKSSSTAYMQLNSLTSGDSAMYFCKKMDYWGQGTTVTVSS
VL: DVLMTQTPLSLPVSLGDQASISCRSSQSIVHSNGNTYLEWYLQKPGQSPKLLIYKVSNRFSGVPDRFSGSGSGTDFTLKISRVEAEDLGVYYCFQGSHVPPTFGAGTKLELKR

biological target: T1, SNAP-25206 uncleaved substrate in PC12 cells (rat (PC12 cells), UniProt P60881 1-206); assay: cell-based assay: Western blot of PC12 lysates, ascites 1:100
T1 construct: also called uncleaved SNAP-25
T1 sequence (P60881 whole entry): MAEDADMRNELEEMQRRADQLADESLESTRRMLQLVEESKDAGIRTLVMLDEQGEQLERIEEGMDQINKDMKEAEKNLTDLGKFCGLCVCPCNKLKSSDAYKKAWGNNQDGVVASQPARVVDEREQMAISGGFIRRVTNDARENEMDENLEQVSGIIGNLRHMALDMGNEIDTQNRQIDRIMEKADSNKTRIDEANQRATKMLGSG

Binder	binding result
B1	no binding
B2	no binding
B3	no binding
